Source: article PMC11793827 (PLOS Pathogens, 2025)

Experiments:
[1] = target: T1, Omicron BA.5 SARS-CoV-2 RBD (SARS-CoV-2, Omicron BA.5 (RBD same as …, strain)); assay: ELISA; details: both partners purified
T1 construct: also called Omicron BA.5 RBD; BA.5 RBD

[2] = target: T2, Omicron BA.1 SARS-CoV-2 RBD (SARS-CoV-2, Omicron BA.1, Q493R); assay: ELISA; details: both partners purified
T2 construct: also called Omicron BA.1 RBD; BA.1 RBD

B1: BP3D5 (VHH)
VHH: EVQLQASGGGFVQPGGSLRLSCAASGRAFRIYTMGWFRQAPGKEREFVSAISAGDGAASYYADSVKGRFTISRDNSKNTVYLQMNSLRAEDTATYYCAQYWQSINPIYWGQGTQVTVSS
notes: also called HCAb BP3D5
Kd [1]: 1.83 nM | Kd [2]: 1.12 nM
